Assays:
[1] = target: wild-type mouse Hck SH3 domain (mouse) (UniProt P08103); assay: HDX-MS; SH3 (50 uM) and Nef-Consensus (117 uM) equilibrated at 4 C for at least 110 min in 20 mM Tris-HCl pH 8.3, 100 mM NaCl, 3 mM DTT; 15-fold dilution into D2O buffer; intact-protein MS; SH3 cooperative unfolding rate free and with Nef (slowdown factor)
[2] = target: mouse Hck SH3 domain with High Affinity RT loop (HART) (mouse) (UniProt P08103); assay: as above
[3] = target: wild-type mouse Hck SH3 domain (mouse) (UniProt P08103); assay: SPR
[4] = target: wild-type human Hck SH3 domain (human) (UniProt P08631); assay: SPR
wild-type human Hck SH3 domain (human), sequence (P08631 78-138): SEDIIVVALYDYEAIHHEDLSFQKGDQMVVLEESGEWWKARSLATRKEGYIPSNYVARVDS

[5] = target: mouse Hck SH3 domain with High Affinity RT loop (HART) (mouse) (UniProt P08103); assay: SPR

wild-type mouse Hck SH3 domain (mouse), sequence (P08103 76-136): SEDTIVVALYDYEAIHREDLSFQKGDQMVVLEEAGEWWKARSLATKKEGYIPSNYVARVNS
HIV-1 Nef-SF2, untagged, sequence (P03407 whole entry): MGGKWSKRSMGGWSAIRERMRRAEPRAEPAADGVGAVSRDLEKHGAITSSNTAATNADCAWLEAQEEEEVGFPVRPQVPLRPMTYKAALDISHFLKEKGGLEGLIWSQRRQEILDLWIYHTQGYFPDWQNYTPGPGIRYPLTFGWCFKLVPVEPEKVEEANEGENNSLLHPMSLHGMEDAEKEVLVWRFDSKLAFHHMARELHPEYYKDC

Substance: HIV-1 Nef-Consensus, untagged
- fold decrease in SH3 unfolding rate with Nef (slowdown factor) [1]: 5.7 fold
- fold decrease in SH3 unfolding rate with Nef (slowdown factor) [2]: 50 fold
- Kd [3]: 80 nM
- koff [3]: 0.0185 s⁻¹
- kon [3]: 241000 M⁻¹ s⁻¹
- Kd [4]: 120 nM
- koff [4]: 0.118 s⁻¹
- kon [4]: 1e+06 M⁻¹ s⁻¹
- Kd [5]: 20 nM
- koff [5]: 0.0324 s⁻¹
- kon [5]: 1.57e+06 M⁻¹ s⁻¹

Substance: HIV-1 Nef-SF2, untagged (from UniProt P03407) (natural protein)
- Kd [5]: 10 nM
- koff [5]: 0.0143 s⁻¹
- kon [5]: 1.42e+06 M⁻¹ s⁻¹
